T1: PSGL-1 endogenously expressed on HL-60 cells (UniProt Q14242 42-412)
T1 construct: whole, on cells
T1 sequence (looked up): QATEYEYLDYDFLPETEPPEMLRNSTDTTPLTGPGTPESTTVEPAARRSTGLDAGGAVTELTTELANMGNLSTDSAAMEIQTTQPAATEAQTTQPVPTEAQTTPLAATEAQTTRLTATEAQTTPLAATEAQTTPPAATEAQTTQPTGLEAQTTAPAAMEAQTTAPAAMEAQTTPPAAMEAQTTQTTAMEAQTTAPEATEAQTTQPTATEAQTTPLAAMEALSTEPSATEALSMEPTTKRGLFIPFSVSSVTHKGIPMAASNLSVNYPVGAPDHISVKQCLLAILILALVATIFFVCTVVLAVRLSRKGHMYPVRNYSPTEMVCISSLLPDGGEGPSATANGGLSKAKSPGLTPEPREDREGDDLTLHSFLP


Columns and labels:
[1] = molecular target: T1, PSGL-1 endogenously expressed on HL-60 …; test: flow cytometry on HL-60 cells
Experimental: (§1) A typical flow cytometry assay was performed by resuspending HL-60 cells in FACS buffer (5% FBS and 0.05% Sodium Azide in PBS, pH 7.2) on ice, pelleting cells by centrifugation at 500×g for 3 min, washing cells with FACS buffer, and then blocking Fc receptors on the cells with Fc block (human TruStain FcX™, BioLegend Cat. #422302) on ice for 10 min. After washing, 50,000 cells/50 ul in FACS buffer was added to each well of a 96-well round bottomed plate (Costar, Cat. #3797), and 50 ul of serially diluted (0.06 nM-1.0 uM) test or isotype control antibody was added into duplicate wells. The plate was covered and incubated on ice for 1 h. After washing, Phycoerythrin (PE) conjugated anti-human IgG secondary antibody (Abcam; Cat. #ab99825) was added to each well and the plate incubated in the dark on ice for 30 min. After washing, the cells were fixed (1% paraformaldhyde).

[2] = molecular target: T1, PSGL-1 endogenously expressed on HL-60 …; test: flow cytometry on HL-60 cells; against parent 20I15
Experimental: as §1

| Binder | EC50 [1] [nM] | HL-60 EC50 (normalized) [2] [fold] |
| --- | --- | --- |
| 20I15.001 (antibody, IgG4, V domains shown, Humanised; also called 20115.001) VH: EVQLVESGGGLVQPGGSLRLSCAASGFTFTDYYMSWVRQAPGKGLEWLGFIRNKANGYTTEYSASVKGRFTISRDNSKNSLYLQMNSLKTEDTAVYYCARTYLRRGYFDVWGQGTLVTVSS VL: DIQLTQSPSTLSASVGDRVTITCRASKSVSTSGYSYMHWFQQKPGKAPKLLIYLASNLESGVPSRFSGSGSGTEFTLTISSLQPDDFATYYCQHSRELPLTFGQGTKLEIK | 0.5 | 0.4 |
| 20I15.002 (antibody, IgG4, V domains shown, Humanised) VH: EVQLVESGGGLVQPGGSLRLSCAASGFTFTDYYMSWVRQAPGKGLEWLGFIRNKASGYTTEYSASVKGRFTISRDNSKNSLYLQMNSLKTEDTAVYYCARTYLRRGYFDVWGQGTLVTVSS VL: DIQLTQSPSTLSASVGDRVTITCRASKSVSTSGYSYMHWFQQKPGKAPKLLIYLASNLESGVPSRFSGSGSGTEFTLTISSLQPDDFATYYCQHSRELPLTFGQGTKLEIK | 1 | 0.7 |
| 20I15.003 (antibody, IgG4, V domains shown, Humanised) VH: EVKLVESGGGLVQPGGSLRLSCAASGFTFTDYYMSWVRQAPGKGLEWLGFIRNKANGYTTEYSASVKGRFTISRDNSQNSLYLQMNSLKTEDTAVYYCARTYLRRGYFDVWGQGTLVTVSS VL: DIQLTQSPSTLSASVGDRVTITCRASKSVSTSGYSYMHWFQQKPGKAPKLLIYLASNLESGVPSRFSGSGSGTEFTLTISSLQPDDFATYYCQHSRELPLTFGQGTKLEIK | 1.6 | 1.1 |
| 20I15.004 (antibody, IgG4, V domains shown, Humanised) VH: EVKLVESGGGLVQPGGSLRLSCAASGFTFTDYYMSWVRQAPGKGLEWLGFIRNKAQGYTTEYSASVKGRFTISRDNSQNSLYLQMNSLKTEDTAVYYCARTYLRRGYFDVWGQGTLVTVSS VL: DIQLTQSPSTLSASVGDRVTITCRASKSVSTSGYSYMHWFQQKPGKAPKLLIYLASNLESGVPSRFSGSGSGTEFTLTISSLQPDDFATYYCQHSRELPLTFGQGTKLEIK | 1 | 0.7 |

Second part, the binder after the results:

| EC50 [1] [nM] | HL-60 EC50 (normalized) [2] [fold] | Binder |
| --- | --- | --- |
| 1.3 | 0.9 | 20I15.005 (antibody, IgG4, V domains shown, Humanised) VH: EVQLVESGGGLVQPGGSLRLSCAASGFTFTDYYMSWVRQAPGKGLEWLGFIRNKANGYTTEYSASVKGRFTISRDNSKNSLYLQMNSLKTEDTAVYYCARTYLRRGYFDVWGQGTLVTVSS VL: DIVLTQSPSTLSASVGDRVTITCRASKSVSTSGYSYMHWFQQKPGKAPKLLIYLASNLESGVPSRFSGSGSGTDFTLTISSLQPDDFATYYCQHSRELPLTFGQGTKLEIK |
| 0.8 | 0.6 | 20I15.006 (antibody, IgG4, V domains shown, Humanised) VH: EVQLVESGGGLVQPGGSLRLSCAASGFTFTDYYMSWVRQAPGKGLEWLGFIRNKASGYTTEYSASVKGRFTISRDNSKNSLYLQMNSLKTEDTAVYYCARTYLRRGYFDVWGQGTLVTVSS VL: DIVLTQSPSTLSASVGDRVTITCRASKSVSTSGYSYMHWFQQKPGKAPKLLIYLASNLESGVPSRFSGSGSGTDFTLTISSLQPDDFATYYCQHSRELPLTFGQGTKLEIK |
| 1.6 | 1.1 | 20I15.008 (antibody, IgG4, V domains shown, Humanised) VH: EVKLVESGGGLVQPGGSLRLSCAASGFTFTDYYMSWVRQAPGKGLEWLGFIRNKAQGYTTEYSASVKGRFTISRDNSQNSLYLQMNSLKTEDTAVYYCARTYLRRGYFDVWGQGTLVTVSS VL: DIVLTQSPSTLSASVGDRVTITCRASKSVSTSGYSYMHWFQQKPGKAPKLLIYLASNLESGVPSRFSGSGSGTDFTLTISSLQPDDFATYYCQHSRELPLTFGQGTKLEIK |
| 0.8 | 0.6 | 20I15.007 (antibody, IgG4, V domains shown, Humanised) VH: EVKLVESGGGLVQPGGSLRLSCAASGFTFTDYYMSWVRQAPGKGLEWLGFIRNKANGYTTEYSASVKGRFTISRDNSQNSLYLQMNSLKTEDTAVYYCARTYLRRGYFDVWGQGTLVTVSS VL: DIVLTQSPSTLSASVGDRVTITCRASKSVSTSGYSYMHWFQQKPGKAPKLLIYLASNLESGVPSRFSGSGSGTDFTLTISSLQPDDFATYYCQHSRELPLTFGQGTKLEIK |

Source: patent US20220396632A1 (VERSEAU THERAPEUTICS, published 2022)
